Measurements from the DeepSol protein solubility set.

Test: soluble on expression in E. coli; label from the status in PepcDB or PDB records

Soluble on expression in E. coli, not soluble:
MGSDKIHHHHHHMNNKKIFLFEFTVGTGLVPDELLAEGKLMFDILLNQFLDENYTVKTVLCEKIAKKYPKYNEINNLEIIVSDNYINSFKEGLDDSDFALAIAPEEDLILYNLTELIEESGCLNLGCEKSGVKIAGDKFLTYEAIKNAVNTPKTFPVKKYVVKNRLGCDSTHDTFDENYIVQEFIEGEPYSVIFIAKNKKFYPVCMNKQYIEKRYCGGEINIEHTLKEKAIIECKKTLEKIEGINGYVGVDLMINGEEISILEVNPRITTSICGIKSKPSIGKLLIDNALEKDIKFEVESCLKFKRNDFGFEFL
MGSDKIHHHHHHMNNLYHLKVRCSSLHKIIGEPKSKADKEAGKLTDTAKSAVREMAKFDLFGYNAFEGNKYTQKGNELEEQAIKLSGVTRGLALKKNTERRENEFITGECDIYVPSRKLIIDTKCSWDIGSHPFFTDEAQEKAKKAGYDIQMQGYMWLWDCDQAQIDFVLFPTPLNLISAYDSDFKLIDLVEQIPQIRRITTVIIQRDNELIDKIKERVSAAQKYYDQLISEMS
MGSDKIHHHHHHMNNVLILYPKLFNCYSKFSRKVLKITSSLGAATLVYPDDPNGLIEKFCEESSGKMTNKEFPNWTPDDITHAIIFDDGEEFIEETERLKESKKPLRLIGICITRVINIKTETEYQSEKSTPIYEYIGRGSYWGNPYSMFEEGEDREEVIRKYKYDFDFEKFPNKEKSEVYKLAGKRLGCFCKPQACHGDVLADFLNSWDDGK
MGSDKIHHHHHHMNQIINDNYREFLKKLRERHLKKRKVKDKNKPIAVWMQDDIYRDFSIGKSLTIILRTEGCYYAKEGGCLMCSYLMDSSPEKITAENIINQFNYAIEKYKEKIKDLKDFSVKIFTSGSFLDDREVPKEARNYIFKKLSEFDNLKEVAIESRPEFIDEDKLNEIRKYLDVNVEIGVGIESFNEEIREKAINKGITNEQIIRAIELAKNYNIGIKAYLLIKPLFITEKEAIYDSISSANKCIELGCSRISFCPATVHKGSVMEFFFNKNQYRPPFLWSIIEILKEVKKSNPKALIMCDTSGVGSERGAHNLYNCKCNKLIKERLERFTLTQDINVLNVECECKNIWNAYIEVENKNIVPLGDERKLLL
MGSDKIHHHHHHMNRMAGCINDHLKRYGGLAAGREDEQKRYFAEKRLYALQIETTDACQQGCIFCYAGSTPREHHGLTSDEIRGLLRDAAALEIRAIDWLGGDPLVRPDWYELMQYARSLGLVNNVWTSGLPLKSKEVAARVHEVSEGGFVSVHVDSITPEVYAKLHRGGNPHFIEAIVEGVDNLLALGKPADMMINCITYTSLQGPEDAIKTMRWWFCEKGLRTCLTMFNPAGMGAEWRSLEPQLDEVQRVYTERDRIDYGGDNISIAAMDTDKYYCGTMATVTFTGDVTPCSVIREGVANIRTTPFRDIVARHLDTLVHAALHDVQNLPNPCNDCVNNAHCWGCRASAYHYSGDADGLDPKCWLIRTALTSDSFSVNNNLQKSTDEEIGLKP
MGSDKIHHHHHHMNSKLSLSTKLSSSGKTQLAEYFATPPFKVITLPSYDDAWANGLNAMQMSSSPGVLAGDLLEIDISLAKLTALSLNTQAFTRVQAMNEGDSAMQTTHILLAENSRLFYLPHPLVLHRDSVFKQQTQIEMGEQSELIYGEIVAIGRVLNDERFAFRQFSSHLKIYALQNDGKKRPLVSDCIQWLPSKMNLTALSQMENYSHQGSLTYLNLAKNNAEIKQQVQALQQQSTEEKDLLIGISQLNEYGLMVRVLGCRAEANSEII
MGSDKIHHHHHHMNSLQSTHPPKLNSCDRQVILDYFENAWQLEDMLMKTLVEEDTFYLNPDPLRNPLIFYLGHSAVFYINKLISVGLLEKRINPDYEILFEIGVDPEVPEELNQAIAHLEWPQVAQTWEYRKQAYTVIAEVIKTTPITLPIHPTHPLWALMMGIEHQRIHIETSSMLIRQLPIERVKRPQNWQYAPFNGYTAQNEMIQVIGGVVKLGKAFNDPTYGWDIDYGDRTVEVEPFLASKYLITNADFSYFVKAGGYENQAYWDEESWHWKTENNIQYPKFWIHQNGIYKYRAMFDEIDLPLDWPVEVNHYEAMAYCCWQGKDTRLMSEAEYHLATYGSGLVEDVDNYNVNLKFGSPSPVGMLETAKSYSGLYDLRGNVWEHLSDNLNPLPGYKPHFLYEDNSAIFFDNKHQMMLGGCWITNGTEALKYYRNWFRPNFYQHAGFRIVQDMKH
MGSDKIHHHHHHMNSLSFDFSDDFRPLAAKMRPRCLADYIGQSHLLGKDKPLRRAIEAGYAHSMILWGPPGTGKTTLAEIIAQHFDAEVERLSAVTSGVKEIREAIEQAKYNRQAGRKTLLFVDEVHRFNKSQQDAFLPYIEDGTVIFIGATTENPSFELNNALLSRARIYLLKPLQADEIEQILQNALQDKQNGLGQEHFILADEVLKLLADYVNGDARYALNCLALMADMAESSPQGKVLNQALLIAVLGERNARFDKGGDHYYDLISALHKSIRGSAVDAALYWYARILTAGGDPLYVARRLLAIASEDIGNADPRAMQIAISAWDCYSRVGAYEGERAIAQAVIYLAVAPKSNAVYQAFNQAKQLAKQAKDYDVPLHLRNAPTALMKSLAYGEEYRYAHNEANAYAAGENYFPEQLQDTQFYFPTERGMEKQIKEKLAWLKMQDHASEQQRYKR
MGSDKIHHHHHHMNSTITPTLNLKAQHAERRVVVTGASGYVGARLVVELLSTGFNVRATSRSLSSLKRFPWYDQVEAVEADLSISEDVNRLFEDVDTVFYLVHSMSGTQNFEELESKIASKVAQAAHSNGVRQIIYLSGLHPRTELDKLSPHMRSRENVARILGSTAVPAITFRAATLIGSGSASFEMIRHLTERLPIMVAPQWINNKIEPISIRDTLYYLVKAADLPEPINEEFDIGSGHIYTFADLLRIYGKIRGLRRTIVSLPIPLPLDTLSGLWIAAITPAPLSLAQPLAQSMQEDAICSNRSIRDYISDPPSGLADYPTSVRRALQQESMGVLSSWDSSWKNLSSTDHLPSDPEWTGRTVYSDVQEQSFRSEPAKVWRVIEGIGGHHGWYSTPLLWFVRGVIDKAIGGPGLGGRRDPNRLRVGDRVDFWRVEEVTPEKQLTLRAEMRASGQAWLQFTINGNTLRQRAVYFPKGLLGRVYWLALIPFHAVIFPTMLRNIIQAGDN
MGSDKIHHHHHHMNTDIAKNTNSLNDDKKSNSEQRPYGIVLYGATSFVGQITAHYLAEFLSTSKDASGTTVTWAIAGRDEKKLNELQSKLASKVNIIIANSDDATSLDELTEQTQVIISTVGPYLKYGEPLIKSCVDNGTDYVDLTGEAIFIKDMIDKYQEAAKQSGARIVNSCGFDSIPSDLGVYFTQKQAEAKFDSACDVIHMRVKAAKGGLSGGTIASMATIFEEVGQDKSRRKQVANPYLLNDDKDVPNVRQSNVSKPEYDSEHKRWLAPFVMASINTRIVHRSNQLLGYEYGRDFKYDEAMWMKDGIKGKLTSYALSAGLLGFATAMMITPSRELLSKHVLPKSGSGPSKEEQENGYFDIRLFGKTANKETIATKVTGDKDPGYGSTSRMLSQAALCLAQDISKEAVGGGFWTPASAMGDKLLARLKEHAGLSFDVIDR
MGSDKIHHHHHHMNTHNILIIGQGDIGLPVTNKLAQNGVNVTGLARRKRQNYALSDHAKFMQADALTLSPEQLQDFTHIAIIVTPDEYSTSGYHNSYLAINQHLALLADKLSNLQRVVFISSTGVYGQDNGEWIDEDTVPMLPEREASQVILQAEQALQQVFHDRAIIIRPSGIYGRARLMRVRKAKEPQKQPIAAGAWTNRIMDSDLVNIIAKVLTIKAPKPIYIATDYLPVTSFALTTWLSEQLDEALPVLDDKNSVMTGKRLHSNIPLSWLMYPDWQIGYQDILRHQD
MGSDKIHHHHHHMNVLASKDFRTEKRPLPFECIALVLQGGGALGAYQAGVYEALAEADIHPDWVAGVSIGAINSAIIAGNEPTERVPKLRAFWREISANPLLDWAAASPALAPTGTLPRLLFNQFSAACALVAGAPGFFSLRQPVPWLQADGSLEGTSFYETKHLKSTLERLVDFDRINAGRMRFSVGAVNVRSGNFVYFDNDQHTIRPEHVMASGSLPPGFPAVEIDGEFYWDGGLISNTPLQWVVEHGARQDTLAFQVDLWSARGEFPRNLSEVATRQKEIQYASRSRAHTDQFKQYQRARHTLASLLSKLPPELLDSEEATALSSIADHKVYKLVHLTYRSKQHEGHSKDHEFSRLSMEEHWRAGYFDAVRTLRHPEALLRPDNLEGVSTYDLAEDGRE
MGSDKIHHHHHHMNVLLSRKDTIRFLILSELMVNPECNQRDIAKKLGLTPQAISEHFKEMVSEGFINVVHKGYYEVTRKGEEWMSRNLIDLHLFSEELLKKIYSKTVVAIAKGRIAENDSVRYWFGDGYIFAERSAKGNGVALTSAEDGEDVLIKPTGSFEPPEKGEIIIVKVPGVAEGGSRKVDLDSFRELVKSRPTSIVVAIGIEALVTCRKIRVEPIFFGAKEVCIEAAHHGSGVIVACTESMLNDLLRSLIDEGLEFEIKEFVKAT
MGSDKIHHHHHHMNVLYVTVDALRADHVTPELMPNVSGFVDRSIEYERCYANGPGTPWSFPALLGSQYSGANDGVGIPGEDDSRPTLAEVLRDEGYETAGFTDNHFASSDYNYDRGMTTMFDAGATSSEKRLKQAVRKRLDHDGTLYQMLLRGHHLIDDLLVKIQGRDTRFTRAETLIDSLVDWIDERNDQWFAWLHPMDTHAPYEAPDDYQEQFLDEPIPRRRSQKLARKATHHPDELSDDEWELQQQLYKAECSYLDDQIGRLLDSFPEPERENTLLVFTADHGEMHGEHGLGGHPQQFWEEVIHVPCAISAPGFEATTVNEQAALIDIPPTILDAVGIDAPEYWDGMSVLPDEGTVQEREYVFVDVESELNRNHAGVRRSDNWKLMRHDDEGELLLDLDTNPEEDPEQTRLNDAPEAYRALTDSLDNHLDEMERRRSGETSGIEDEELIEDHLRELGYLE
MGSDKIHHHHHHMNVSIRLPRFEFDDKILEQGAEISRRLNQLRMEKFPPNATKTLRTFSMAEVAHYLGVSQNNLKRLHLEGKGPLPDQSPSGRRSYTATQMLELRQFLDQHGRTEVKKYVPHRKLGDKLQVVAVVNFKGGSGKTTTAAHLAQHLALTGHRVLAIDLDPQASLSALHGFQPELDRNLSLYEAIRYDDERRSIADVIIPTNFPGLDIIPANLELQEYEYDTPLAMQDKTSSAGRQFFTRMAKALSEVDDRYDVVVVDCPPQLGYLTLTAMSAATSVLITVHPQMLDLMSMSQFLLMLGGILKTIKAAGAAIELDWFRYLITRYEPTDIPQAQMVGFMQSMLAGQILENPMLKSTAISDAGLTKQTLYEVEKSAFTRSTYDRALESLDAVNAEIVTLIHRAWGRS
MGSDKIHHHHHHMNVVVQKYGGSSVATPERIKNVAQRIKKKVDEGYKVVVVVSAMGKTTDNLIKLAKEISPRPDSRELDMLLATGEQVSAALLSMALKDLGVKAKSLNAFQVKIKTTPHHTSARIVDIDDSVIRENLKDYDVLVVTGFQGVNEHGDLTTLGRGGSDTSAVALAAKLRVPCEIYSDVDGIYTCDPRVHPRAKKLAYITYDEALELTALGAKVLHSRSVEIAKKYGIPIYCASSFTEEEGTMVVERLPEWLEEPVVTGATISHGQIKVSISFLPKDVKYITAIFEEVGKRALNVDMISLVPSNGKVFLSFTILEDHKEDLDEALKEALRDVEGWKSTYEGGFAKLSIVGVGMRTSPGVAARFFEALERAGVTPELVTTSEIKISCLVPEEKAEEALKSVIEEFEL
